Test results reported in PMC7472637.

Legend:
Experiment in all cases: in vivo oligomerization (SDS-PAGE of cell lysates ± DTT, anti-FLAG Western blot)
[1] = target: HapR-R37E, C-terminal FLAG-tagged (Vibrio cholerae)
[2] = target: HapR-R37D, C-terminal FLAG-tagged (Vibrio cholerae)
[3] = target: HapR-R37H, C-terminal FLAG-tagged (Vibrio cholerae)
[4] = target: HapR, wild type, C-terminal FLAG-tagged (Vibrio cholerae)
[5] = target: HapR-R37A, C-terminal FLAG-tagged (Vibrio cholerae)

Substance: HapR-R37E, C-terminal FLAG-tagged (natural protein)
- stoichiometry N [1]: 2

Substance: HapR-R37D, C-terminal FLAG-tagged (natural protein)
- stoichiometry N [2]: 2

Substance: HapR-R37H, C-terminal FLAG-tagged (natural protein)
- stoichiometry N [3]: 2

Substance: HapR, wild type, C-terminal FLAG-tagged (natural protein)
- stoichiometry N [4]: 2

Substance: HapR-R37A, C-terminal FLAG-tagged (natural protein)
- stoichiometry N [5]: 2
